Measured values as given in the supplement of paper PMC9170038.

Test system: MS2 coat protein
Experiment: apparent KD of MS2 coat protein; designed switch direction (-1 OFF switch, 1 ON switch): -1; higher = weaker reporter binding
Outline: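 RNA switches sharing common flanks were transcribed by stalled E. coli RNA polymerase on Illumina chips. A doubling series of SNAP-549-labelled MS2 coat protein, from 0.7 or 1.5 nM to 3 µM, was applied in Tris-HCl pH 7.5 buffer with KCl, MgCl2, BSA, DTT, tRNA and Tween-20. Each step lasted 0.8–1.5 h at the bottom of the series and 10–20 min at the top. Normalised cluster fluorescence was curve-fitted, giving apparent KD as the per-design median over clusters.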

[1] = input ligand: microRNA oligo, concentration not stated
[2] = Eterna round: R95, input ligand: microRNA oligo, concentration not stated

Sequence	apparent KD of MS2 coat protein (input ligand: FMN 200 uM) [µM]	apparent KD of MS2 coat protein (input ligand: none) [µM]	apparent KD of MS2 coat protein [1] [µM]	apparent KD of MS2 coat protein [2] [µM]
ACAAUGUUAGGAUAUCUGACAACUAGCCUCGGCUAGUCGAAAGAGAAGGAACAUGAGGAUCACCCAUGUAGAUC [EX4 #71] (Eterna round: R97, puzzle: Exclusion 4)	0.523	0.146	–	–
ACAGCAUAGUUAGGAUAUUGCCGACACUGUGUGUUCCUACACAUGAGGAUCACCCAUGUGAAGCGCGAGAAGGAACUAACUGAA [Eternabot solution 8] (Eterna round: R96, puzzle: Exclusion NG 2)	0.43	0.348	0.179	–
ACAGGUGCAGGAUAUACAUGAGGAUCACCCAUGUAGAUCAACCAGCGAUAGCUGGAAUGUAGAAGGGCACCUGU [E3/5-D1] (Eterna round: R97, puzzle: Exclusion 3)	0.0944	0.0185	–	–
ACAUGAGGAUCACCCAUGUAAACAUAAUGGCUGAUGUAGAGUCAGGAUAUGCGUGGCUAACAAUCGCAGAAGGGACAAGACUGG [Deportation 30 - Jieux - Exclusion NG 3] (Eterna round: R96, puzzle: Exclusion NG 3)	0.0222	0.025	0.0231	–
ACAUGAGGAUCACCCAUGUAAACAUAAUGGCUGAUGUAGAGUCAGGAUAUGUGUGGCUAACAAUCGCAGAAGGGACAAGACUGG [Deportation 31 - Jieux - Exclusion NG 3] (Eterna round: R96, puzzle: Exclusion NG 3)	0.0235	0.0318	0.0192	–
ACAUGAGGAUCACCCAUGUAAUGAAGGGUACUAUAUUAAACGUAGGAUAUCGAUGUAAGUUUGUACGAGAAGGACGAUUGCCUU [JR_ExcNG3_Sub052] (Eterna round: R96, puzzle: Exclusion NG 3)	0.0482	0.0841	0.0395	–
ACAUGAGGAUCACCCAUGUAAUGAUGGGUACUAUAUUAUUCGUAGGAUAUCGUUGUUAGUUUGUGCGAGAAGGACGUUUGCCUU [JR_ExcNG3_Sub056] (Eterna round: R96, puzzle: Exclusion NG 3)	0.994	0.698	0.667	–
ACAUGAGGAUCACCCAUGUACACGUAAUGGCUCAUGUAGAGUGAGGAUAUGUGAGACGAACGAGAACAGAAGGCACAAGACAGG [Deportation 9 - Jieux - Exclusion NG 3] (Eterna round: R96, puzzle: Exclusion NG 3)	0.0291	0.0359	0.0301	–
ACAUGAGGAUCACCCAUGUCAGGCGGGUCUACUCCGGCUGUUGAGGAUAUAGUUCGGUAUCCGCGCUAGAAGGUGAGGGCCGGC [Aenatbe mod 23] (Eterna round: R96, puzzle: Exclusion NG 3)	0.0208	0.0218	0.0149	–
ACAUGAGGAUCACCCAUGUCAGGUUGGUUUUCUCCGGCUGUUGAGGAUAUAGUCCGGUAUCCGCGCUAGAAGGUGAGGGUUGGC [Aenatbe mod 13] (Eterna round: R96, puzzle: Exclusion NG 3)	0.0645	0.0787	0.0544	–
ACAUGAGGAUCACCCAUGUCCGGCUGGUCUGUUCCGGUUGUCGAGGAUAUAGUUCGGUGUUCGCGCUAGAAGGUGGGAGCUGGA [Aenatbe mod 54] (Eterna round: R96, puzzle: Exclusion NG 3)	0.186	0.136	0.103	–
ACAUGAGGAUCACCCAUGUCCGUCUGGUCUGUCUCGGCUGUCGAGGAUAUAGCUCGGUAUCCGCGCUAGAAGGCGGGAGUCGGC [Aenatbe mod 96] (Eterna round: R96, puzzle: Exclusion NG 3)	0.0264	0.0319	0.0173	–
ACAUGAGGAUCACCCAUGUCUGGCGGGUCCUCUCCGGCUGUUGAGGAUAUAGUUCGGUAUCCGCGCUAGAAGGUGAGGGCCGGC [Aenatbe mod 20] (Eterna round: R96, puzzle: Exclusion NG 3)	0.0213	0.0165	0.0146	–
ACAUGAGGAUCACCCAUGUGAAACCAAUGGCUGACUUUGAGACAGGAUAUUCGUGCAUAUCAUACGAAGAAGGGUCAUUACUGG [Deportation 96 - Jieux - Exclusion NG 3] (Eterna round: R96, puzzle: Exclusion NG 3)	0.0635	0.0552	0.0458	–
ACAUGAGGAUCACCCAUGUGACAAGAAUGGCUGACACAGAGAUAGGAUAUAGGUGCAUAUCUAACCUAGAAGGGUCAUGACUGG [Deportation 76 - Jieux - Exclusion NG 3] (Eterna round: R96, puzzle: Exclusion NG 3)	0.0402	0.0265	0.0233	–
ACAUGUAAUGCAGGAUAUCUGACACAUGAGGAUCACCCAUGUGACCAGAGGAAUUGCUAUGAGUCGGAGAAGGGUAUGUACAUG [Ex NG2 #54] (Eterna round: R96, puzzle: Exclusion NG 2)	0.0377	0.0271	0.0203	–

Sequence	apparent KD of MS2 coat protein (input ligand: FMN 200 uM) [µM]	apparent KD of MS2 coat protein (input ligand: none) [µM]	apparent KD of MS2 coat protein [1] [µM]	apparent KD of MS2 coat protein [2] [µM]
ACAUGUAAUGUAGGAUAUUUUACACAUGAGGAUCACCCAUGUGACCGGAGGCUUUACUAUGAGUAAGAGAAGGGUAUGUACAUG [Ex NG2 #62] (Eterna round: R96, puzzle: Exclusion NG 2)	0.0905	0.0867	0.0566	–
ACAUGUCAUCGAGGAUAUUGGACACAUGAGGAUCACCCAUGUACUCGGAGGCUCUACCAUGAGUUCGAGAAGGCGAUGUACAUU [Ex NG2 #77] (Eterna round: R96, puzzle: Exclusion NG 2)	0.542	0.23	0.256	–
ACAUGUCAUCGAGGAUAUUGUACACAUGAGGAUCACCCAUGUAUUCGGUUGCUCUAGCAUGAGUUCGAGAAGGCGAUGUACAUU [Ex NG2 #83] (Eterna round: R96, puzzle: Exclusion NG 2)	0.153	0.194	0.134	–
ACAUGUUAUGUAGGAUAUUAUACACAUGAGGAUCACCCAUGUAACCGGAGGCUUUACUAUGAGUAUGAGAAGGGUAUGAACAUG [Ex NG2 #65] (Eterna round: R96, puzzle: Exclusion NG 2)	–	–	0.0642	–
ACAUGUUAUGUAGGAUAUUGGACACAUGAGGAUCACCCAUGUACCCGGAGGCUUUACUAUGAGUUCGAGAAGGGUAUGAACAUG [Ex NG2 #68] (Eterna round: R96, puzzle: Exclusion NG 2)	0.0398	0.0294	0.0211	–
ACAUGUUGCGCAGGAUAUGAGACACAUGAGGAUCACCCAUGUGGUUACAUGUCUUACCAAGCGUCUCAGAAGGGUGUGAACAUG [Ex NG2 #33] (Eterna round: R96, puzzle: Exclusion NG 2)	0.0364	0.0247	0.0203	–
ACAUGUUGUCCAUGAUAUUACAUGAGGAUCACCCAUGUUAUUGCGAUUUUGAUGUGUAAGUUUGUUGCUCGUCUUAU [JR_STOV1_Sub062] (Eterna round: R97, puzzle: Sensor, turn-off variant 1)	0.0296	0.0326	–	–
ACAUUGCGAGGAUAUACAUGAGGAUCACCCAUGUGGUAGUGGAUACGGUAGGGCUAGUGUAGAAGGUGUUAUGA [EX3 #15] (Eterna round: R97, puzzle: Exclusion 3)	0.0988	0.132	–	–
ACAUUGCUAGGAUAUCGCGGUAAGGACAUGAGGAUCACCCAUGUGGUGCCGUGGGAGGCCCGAGAAGGAGCGACCU [Maveonle] (puzzle: Exclusion 5)	–	–	–	0.0181
ACCAUGUAAGGAUAUGGUGGCUGUGAACAGGCCUGAUAAAUCUAGAAGGUACAUGAGGAUCACCCAUGUGAUGA [Eternabot (L2) Solution 84] (Eterna round: R97, puzzle: Exclusion 4)	0.054	0.0327	–	–
ACCCUGUGAGGAUAUUGUGAGCAGACACUUGAGUGCAAUCAUAAGAAGGUACAUGAGGAUCACCCAUGUGAAAC [Eternabot (L1) Solution 90] (Eterna round: R97, puzzle: Exclusion 4)	0.0304	0.0387	–	–
ACCUAUGAGGAGGAUAUACAGUGCGAAAGGACAGUAGAAGGCUUCACAUGAGGAUCACCCAUGUCGAUAAGCGA [EX6 #83] (Eterna round: R97, puzzle: Exclusion 6)	0.0302	0.0215	–	–
ACCUAUGAGGAGGAUAUACGGUGCGAAAGGAAGGUAGAAGGCUUCACAUGAGGAUCACCCAUGUCGAUAAGCGA [EX6 #85] (Eterna round: R97, puzzle: Exclusion 6)	0.0277	0.0233	–	–
ACCUCACAUGAGGAUCACCCAUGUUAGGAUAUCUCGGUGCCCUGCAGGCAGUGGCACCAGAGAAGGAACGUGCA [Anbearqu] (puzzle: Exclusion 1)	–	–	–	0.0172
ACGACUGGAGGAUAUGCUCUGGGAGCGAUCGUAUAAGCAGUACUUGAGGAUCACCCAAGUAGAAGGUCAGCUCG [Riorus] (Eterna round: R97, puzzle: Exclusion 2)	0.14	0.0376	–	–
ACGAUGACUGAAAAGUGUAAACUGACAUGAGGAUCACCCAUGUAGGAUAUGGCUACGAAAAGUAGUCAGAAGGGCAUGUCAUCA [Omei Exc(NG) 3 Av10] (Eterna round: R96, puzzle: Exclusion NG 3)	0.0143	0.0171	0.0134	–
